Measured values from patent publication US20250197501A1.

T1: recombinant human B7-H3-mFc protein (human) (UniProt Q5ZPR3)
T1 sequence: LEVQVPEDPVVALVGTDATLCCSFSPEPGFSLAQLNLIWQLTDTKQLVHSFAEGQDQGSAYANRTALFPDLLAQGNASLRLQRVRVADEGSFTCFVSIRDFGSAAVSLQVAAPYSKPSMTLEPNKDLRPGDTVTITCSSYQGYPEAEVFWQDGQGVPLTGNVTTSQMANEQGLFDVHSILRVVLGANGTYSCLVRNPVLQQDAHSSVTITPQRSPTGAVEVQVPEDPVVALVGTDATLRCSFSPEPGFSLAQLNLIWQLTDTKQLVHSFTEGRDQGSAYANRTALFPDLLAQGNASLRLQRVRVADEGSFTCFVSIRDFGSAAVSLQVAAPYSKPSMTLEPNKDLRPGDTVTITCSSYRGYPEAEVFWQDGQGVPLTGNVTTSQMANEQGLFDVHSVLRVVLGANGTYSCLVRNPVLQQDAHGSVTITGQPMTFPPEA


Columns and labels:
[1] = target: recombinant cynomolgus monkey B7-H3 protein (cynomolgus monkey); assay: ELISA, plate coated with cynomolgus monkey B7-H3
[2] = target: recombinant cynomolgus monkey B7-H3 protein (cynomolgus monkey); assay: SPR (Biacore), antibody captured on anti-human IgG chip, B7-H3 protein injected
[3] = target: T1, recombinant human B7-H3-mFc protein (human); assay: competitive binding ELISA on B7-H3 protein, no competitor
[4] = target: T1, recombinant human B7-H3-mFc protein (human); assay: competitive binding ELISA on B7-H3 protein, competitor mAb 91H06
[5] = target: T1, recombinant human B7-H3-mFc protein (human); assay: competitive binding ELISA on B7-H3 protein, competitor Ifinatamab (4 µg/mL)

EC50 [1] [nM] | Kd [2] [nM] | EC50 [3] [nM] | EC50 [4] [nM] | EC50 [5] [nM] | Binder
0.0244 | 0.471 | – | – | – | mAb 91H06 (antibody, V domains shown) VH: EVQLVESGGGLVQPGGSLRLSCAASGFTFSDYGMGWVRQAPGKGLEWVSSISWDSSSKEYADSVKGRFTISRDNSKNTLYLQMNSLRAEDTAVYYCARAWIAIIGGGAHFDYWGQGTLVTVSS VL: DIQMTQSPSSLSASVGDRVTITCRASQSVSSHLAWYQQKPGKAPKLLIYLTSSLQSGVPSRFSGSGSGTDFTLTISSLQPEDFATYYCMQSKSLPFTFGQGTKVEIKR
– | – | 0.0331 | 0.0346 | 1.78 | Ifinatamab-biotin (antibody, INN chains, looked up, V domains shown, biotin) VH: QVQLVQSGAEVKKPGSSVKVSCKASGYTFTNYVMHWVRQAPGQGLEWMGYINPYNDDVKYNEKFKGRVTITADESTSTAYMELSSLRSEDTAVYYCARWGYYGSPLYYFDYWGQGTLVTVSS VL: EIVLTQSPATLSLSPGERATLSCRASSRLIYMHWYQQKPGQAPRPLIYATSNLASGIPARFSGSGSGTDFTLTISSLEPEDFAVYYCQQWNSNPPTFGQGTKVEIK
